These results are taken from paper PMC4719306 (Genes & Development, 2016).

B1: Flag-tagged full-length PA1 (recombinant) (natural protein, UniProt Q99L02 1-253, looked up)
chain: MSLALGHGTIAGSTAAPLSEEGEVTSGLQALAVEDTGGPSVSASKAEEEGKGSQEEAGREGSRPEEALEAPSAASDERAEGEAEDWCVPCSDEEVELPANGQSWMPPPSEIQRLYELLATQGTLELQAEILPRRPPTPEAQSEEERSDEEPEAKEEEEEKPHMPTEFDFDDEPMTPKDSLIDRRRTPGSSARSQKREARLDKVLSDMKRHKKLEEQILRTGRDLFSLDSEGPSPTSPPLRSSGNSLFPRQRKY
B2: Strep-tagged N-terminal BRCT1–2 domain fragment of PTIP (recombinant) (domain or fragment)
chain: VPEELFREVKYYAVGDIDPQVIQLLKAGKAKEVSYNALASHIISEDGDNPEVGEAREVFDLPVVKPSWVTLSVQCGALLPVNGFSPESCQIFFGLTACLSQVSSEDRSALWALVTFHGGSCQLNLNKKCTHLIVPEPKGEKYERAVKRTSIKIVTPDWVLDCVSEKRRKDEAFYHP

For assay [1], the target named is B2. In words: ITC. For orientation: ITC needs no label: the signal is the heat of the interaction.
Assay [2] has as its target B1. Nature of the assay: ITC.

By stoichiometry N is commonly meant the number of molecules, sites or subunits per partner or assembly. Usually Kd stands for the free concentration of one partner at which half of the binding sites on the other are occupied at equilibrium, for simple one-to-one binding.

As for B1, in assay [1], the dH was -26 kcal/mol and the “stoichiometry N” value is 1.

B2: the Kd in assay [2] came to 7.1 nM.
